{"source": "patent US20220241413A1", "about": "“COMBINATION THERAPIES USING CD-38 ANTIBODIES” (Takeda Pharmaceutical Company Limited, priority 2019, published 2022)", "key": {"[1]": {"experiment": "Phase 1 study in healthy subjects (AB79-101): pharmacokinetics", "assay_type": "in vivo, human", "details": "single 0.06 mg/kg IV dose", "method": "In a phase 1 study in healthy subjects (Study AB79-101), AB79 reduced the levels of peripheral blood and natural killer (NK) cells >90% from baseline in all subjects receiving a single 0.06 mg/kg IV dose of AB79, with a maximum observed concentration (Cmax) of 0.1 μg/mL. (U.S. Pat. No. 8,362,211; U.S. International Patent Application Serial Nos. PCT/US2019/013547 and PCT/US2019/024431). […] Potent reduction of plasmablasts was observed across cohorts of patients in the RRMM trial (Study AB79-1501). […] Consequently, AB79 may be more efficient at eliminating cells expressing high levels of CD38, which could manifest as higher activity on tumor cells (e.g., improved and deeper response rates across a population of patients with myeloma).\nAB79 IV reduced the levels of peripheral blood NK cells >90% from baseline levels in all subjects receiving a single 0.06 mg/kg IV dose, with a Cmax of 0.1 μg/mL. […] As a potent and convenient second-generation anti-CD38 mAb, AB79 SC warranted therapeutic development for the treatment of multiple myeloma (MM)."}, "cynomolgus CD38": {"molecular_target": "cynomolgus CD38 (Macaca fascicularis, UniProt Q5VAN0)", "sequence (Q5VAN0 whole entry)": "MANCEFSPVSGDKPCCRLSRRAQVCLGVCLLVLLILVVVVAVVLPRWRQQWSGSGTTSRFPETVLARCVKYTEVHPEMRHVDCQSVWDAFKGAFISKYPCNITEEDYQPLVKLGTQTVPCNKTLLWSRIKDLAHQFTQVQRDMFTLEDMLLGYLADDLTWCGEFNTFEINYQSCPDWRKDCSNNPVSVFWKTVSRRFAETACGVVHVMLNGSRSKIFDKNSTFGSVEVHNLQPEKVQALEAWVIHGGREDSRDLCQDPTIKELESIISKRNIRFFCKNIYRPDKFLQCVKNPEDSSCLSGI", "experiment": "Binding to cynomolgus CD38", "description": "Other Morphosys antibodies targeting CD38 are known (see, e.g., WO 2006/125640, which discloses four human antibodies: MOR03077, MOR03079, MOR03080, and MOR03100 and two murine antibodies: OKT10 and IB4). […] Moreover, the prior art antibodies have poor ADCC as well as CDC activity."}}, "data": [{"substance": "AB79: anti-CD38 monoclonal IgG1 antibody; heavy chain SEQ ID NO:11, light chain SEQ ID NO:12", "values": [{"measurement": "maximum observed concentration (Cmax)", "setting": "[1]", "result": 100, "unit": "ng/mL"}, {"measurement": "binding to cynomolgus CD38", "setting": "cynomolgus CD38", "result": "binds"}]}]}
